The labels stand for the following.
B1: Raf homolog serine/threonine-protein kinase Raf (Drosophila melanogaster (Fruit fly)), P11346 (parent)
chain: MSSESSTEGDSDLYDPLAEELHNVQLVKHVTRENIDALNAKFANLQEPPAMYLIEYQELTSKLHELEAKEQELMERLNSQDQQEDSSLVERFKEQPHYQNQTQILQQQRQLARVHHGNDLTDSLGSQPGSQCGTLTRQPKILLRAHLPNQQRTSVEVISGVRLCDALMKALKLRQLTPDMCEVSTTHSGRHIIPWHTDIGTLHVEEIFVRLLDKFPIRTHIKHQIIRKTFFSLVFCEGCRRLLFTGFYCSQCNFRFHQRCANRVPMLCQPFPMDSYYQLLLAENPDNGVGFPGRGTAVRFNMSSRSRSRRCSSSGSSSSSKPPSSSSGNHRQGRPPRISQDDRSNSAPNVCINNIRSVTSEVQRSLIMQARPPLPHPCTDHSNSTQASPTSTLKHNRPRARSADESNKNLLLRDAKSSEENWNILAEEILIGPRIGSGSFGTVYRAHWHGPVAVKTLNVKTPSPAQLQAFKNEVAMLKKTRHCNILLFMGCVSKPSLAIVTQWCEGSSLYKHVHVSETKFKLNTLIDIGRQVAQGMDYLHAKNIIHRDLKSNNIFLHEDLSVKIGDFGLATAKTRWSGEKQANQPTGSILWMAPEVIRMQELNPYSFQSDVYAFGIVMYELLAECLPYGHISNKDQILFMVGRGLLRPDMSQVRSDAPQALKRLAEDCIKYTPKDRPLFRPLLNMLENMLRTLPKIHRSASEPNLTQSQLQNDEFLYLPSPKTPVNFNNFQFFGSAGNI
partner: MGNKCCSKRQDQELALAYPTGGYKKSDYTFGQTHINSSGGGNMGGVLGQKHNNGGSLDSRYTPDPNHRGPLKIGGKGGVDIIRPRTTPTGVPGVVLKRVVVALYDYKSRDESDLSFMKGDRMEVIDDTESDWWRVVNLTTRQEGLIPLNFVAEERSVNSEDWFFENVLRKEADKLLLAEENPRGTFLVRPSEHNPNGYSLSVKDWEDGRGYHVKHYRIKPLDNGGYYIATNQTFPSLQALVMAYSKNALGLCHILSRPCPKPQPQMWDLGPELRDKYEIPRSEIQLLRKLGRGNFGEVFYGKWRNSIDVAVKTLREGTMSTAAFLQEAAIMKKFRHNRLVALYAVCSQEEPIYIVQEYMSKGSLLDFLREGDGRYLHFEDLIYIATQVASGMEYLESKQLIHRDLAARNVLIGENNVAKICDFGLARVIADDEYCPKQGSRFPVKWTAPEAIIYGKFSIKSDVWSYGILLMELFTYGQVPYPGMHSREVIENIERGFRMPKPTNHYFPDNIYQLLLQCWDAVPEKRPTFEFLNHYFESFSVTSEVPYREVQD
B2: Raf homolog serine/threonine-protein kinase Raf (Drosophila melanogaster (Fruit fly)), P11346 (parent)
chain: B1 chain

The first experiment covers variants of B1. To be noted: with src64_drome Src64B.
As to Y510F, the “effect of a mutation on the interaction” value is listed as “disrupting interaction”.

The variants in another experiment derive from B2. To be noted: with dsor1_drome Dsor1, Q24324.
Chain of dsor1_drome Dsor1, Q24324 (Q24324 whole entry): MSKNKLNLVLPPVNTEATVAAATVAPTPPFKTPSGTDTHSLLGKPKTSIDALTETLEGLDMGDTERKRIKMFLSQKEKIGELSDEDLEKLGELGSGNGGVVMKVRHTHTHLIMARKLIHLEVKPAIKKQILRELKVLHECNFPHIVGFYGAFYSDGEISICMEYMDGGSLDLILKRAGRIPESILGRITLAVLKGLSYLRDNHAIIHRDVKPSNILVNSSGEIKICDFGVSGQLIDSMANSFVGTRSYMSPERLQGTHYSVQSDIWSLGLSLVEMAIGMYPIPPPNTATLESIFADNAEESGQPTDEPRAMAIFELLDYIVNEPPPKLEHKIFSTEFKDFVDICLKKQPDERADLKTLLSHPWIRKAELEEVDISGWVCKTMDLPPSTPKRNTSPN
On to Y510E, for which the “effect of a mutation on the interaction” value is “increasing interaction”.

For the origin of these results see IntAct's records for PubMed 18494562.
